Measured values published in patent US20210388087A1 (Chugai, published 2021).
Changes are numbered by the printed parent chain. Names and notes keep the numbering of the source.

T1: Human CD3eg linker (human)
T1 construct: single-chain construct; also called recombinant human CD3
T1 chain: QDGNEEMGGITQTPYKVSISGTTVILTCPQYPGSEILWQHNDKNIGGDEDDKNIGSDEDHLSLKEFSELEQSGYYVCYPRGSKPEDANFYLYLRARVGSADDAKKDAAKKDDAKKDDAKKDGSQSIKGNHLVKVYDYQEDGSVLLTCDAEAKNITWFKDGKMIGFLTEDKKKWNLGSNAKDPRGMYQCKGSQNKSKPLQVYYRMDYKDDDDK

B1: dBBDu183H T100bR/dBBDu072L (antibody, name in Kabat numbering, V domains shown)
VH: QVQLVESGGGLVQPGRSLRLSCAASGFTFSNAWMHWVRQAPGKGLEWVAQIKDKGNAYAAYYAPSVKGRFTISRDDSKNSIYLQMNSLKTEDTAVYYCHYVHYASASRVLPAFGVDAWGQGTTVTVSS
VL: DIVMTQSPLSLPVTPGEPASISCQASQELVHMNRNTYLHWYQQKPGQAPRLLIYKVSNRFPGVPDRFSGSGSGTDFTLKISRVEAEDVGVYYCAQGTSVPFTFGQGTKLEIK
B2: dBBDu183H V63Y/dBBDu072L (antibody, name in Kabat numbering, V domains shown)
VH: B1 VH with V66Y, R108T
VL: B1 VL
B3: dBBDu183H V95N/dBBDu072L (antibody, name in Kabat numbering, V domains shown)
VH: B1 VH with V101N, R108T
VL: B1 VL
B4: dBBDu183H V100cE/dBBDu072L (antibody, name in Kabat numbering, V domains shown)
VH: B1 VH with R108T, V109E
VL: B1 VL
B5: dBBDu183H T100bS/dBBDu072L (antibody, name in Kabat numbering, V domains shown)
VH: B1 VH with R108S
VL: B1 VL
B6: dBBDu183H V95F/dBBDu072L (antibody, name in Kabat numbering, V domains shown)
VH: B1 VH with V101F, R108T
VL: B1 VL
B7: dBBDu183H V63G/dBBDu072L (antibody, name in Kabat numbering, V domains shown)
VH: B1 VH with V66G, R108T
VL: B1 VL
B8: dBBDu183H V95S/dBBDu072L (antibody, name in Kabat numbering, V domains shown)
VH: B1 VH with V101S, R108T
VL: B1 VL
B9: dBBDu183H V95K/dBBDu072L (antibody, name in Kabat numbering, V domains shown)
VH: B1 VH with V101K, R108T
VL: B1 VL
B10: dBBDu183H V63H/dBBDu072L (antibody, name in Kabat numbering, V domains shown)
VH: B1 VH with V66H, R108T
VL: B1 VL
B11: dBBDu183H V95R/dBBDu072L (antibody, name in Kabat numbering, V domains shown)
VH: B1 VH with V101R, R108T
VL: B1 VL
B12: dBBDu183H V95E/dBBDu072L (antibody, name in Kabat numbering, V domains shown)
VH: B1 VH with V101E, R108T
VL: B1 VL
B13: dBBDu183H V63T/dBBDu072L (antibody, name in Kabat numbering, V domains shown)
VH: B1 VH with V66T, R108T
VL: B1 VL
B14: dBBDu183H T100bY/dBBDu072L (antibody, name in Kabat numbering, V domains shown)
VH: B1 VH with R108Y
VL: B1 VL
B15: dBBDu183H V63F/dBBDu072L (antibody, name in Kabat numbering, V domains shown)
VH: B1 VH with V66F, R108T
VL: B1 VL
B16: dBBDu183H V63S/dBBDu072L (antibody, name in Kabat numbering, V domains shown)
VH: B1 VH with V66S, R108T
VL: B1 VL
B17: dBBDu183H V63Q/dBBDu072L (antibody, name in Kabat numbering, V domains shown)
VH: B1 VH with V66Q, R108T
VL: B1 VL
B18: dBBDu183H V95W/dBBDu072L (antibody, name in Kabat numbering, V domains shown)
VH: B1 VH with V101W, R108T
VL: B1 VL
B19: dBBDu183H V95H/dBBDu072L (antibody, name in Kabat numbering, V domains shown)
VH: B1 VH with V101H, R108T
VL: B1 VL
B20: dBBDu183H T100bW/dBBDu072L (antibody, name in Kabat numbering, V domains shown)
VH: B1 VH with R108W
VL: B1 VL
B21: dBBDu183H V63W/dBBDu072L (antibody, name in Kabat numbering, V domains shown)
VH: B1 VH with V66W, R108T
VL: B1 VL
B22: dBBDu183H V95Q/dBBDu072L (antibody, name in Kabat numbering, V domains shown)
VH: B1 VH with V101Q, R108T
VL: B1 VL
B23: dBBDu183H V95G/dBBDu072L (antibody, name in Kabat numbering, V domains shown)
VH: B1 VH with V101G, R108T
VL: B1 VL
B24: dBBDu183H T100bV/dBBDu072L (antibody, name in Kabat numbering, V domains shown)
VH: B1 VH with R108V
VL: B1 VL
B25: dBBDu183H V63R/dBBDu072L (antibody, name in Kabat numbering, V domains shown)
VH: B1 VH with V66R, R108T
VL: B1 VL
B26: dBBDu183H V63D/dBBDu072L (antibody, name in Kabat numbering, V domains shown)
VH: B1 VH with V66D, R108T
VL: B1 VL
B27: dBBDu183H V63N/dBBDu072L (antibody, name in Kabat numbering, V domains shown)
VH: B1 VH with V66N, R108T
VL: B1 VL
B28: dBBDu183H V63E/dBBDu072L (antibody, name in Kabat numbering, V domains shown)
VH: B1 VH with V66E, R108T
VL: B1 VL
B29: dBBDu183H V95Y/dBBDu072L (antibody, name in Kabat numbering, V domains shown)
VH: B1 VH with V101Y, R108T
VL: B1 VL
B30: dBBDu183H V95T/dBBDu072L (antibody, name in Kabat numbering, V domains shown)
VH: B1 VH with V101T, R108T
VL: B1 VL
B31: dBBDu183H V63K/dBBDu072L (antibody, name in Kabat numbering, V domains shown)
VH: B1 VH with V66K, R108T
VL: B1 VL
B32: dBBDu183H V95D/dBBDu072L (antibody, name in Kabat numbering, V domains shown)
VH: B1 VH with V101D, R108T
VL: B1 VL
B33: dBBDu183H V100cD/dBBDu072L (antibody, name in Kabat numbering, V domains shown)
VH: B1 VH with R108T, V109D
VL: B1 VL

Molecular target: T1, Human CD3eg linker
Experiment: SPR, vs unmutated H183/L072

| Binder | fold change of affinity [fold] |
| --- | --- |
| B1 | 1.8 |
| B2 | 1.1 |
| B3 | 0 |
| B4 | 0.8 |
| B5 | 1.5 |
| B6 | 0 |
| B7 | 1 |
| B8 | 0 |
| B9 | 0 |
| B10 | 1 |
| B11 | 0 |
| B12 | 0 |
| B13 | 1.2 |
| B14 | 1.8 |
| B15 | 1.1 |
| B16 | 1.1 |
| B17 | 1.2 |

| Binder | fold change of affinity [fold] |
| --- | --- |
| B18 | 0 |
| B19 | 0 |
| B20 | 1.8 |
| B21 | 0.8 |
| B22 | 0 |
| B23 | 0 |
| B24 | 1.2 |
| B25 | 1.2 |
| B26 | 1.3 |
| B27 | 1.3 |
| B28 | 1.1 |
| B29 | 0 |
| B30 | 0 |
| B31 | 1.3 |
| B32 | 0 |
| B33 | 0.8 |
